# From patent US7538262B2, “GDC-2 genes conferring herbicide resistance” (Athenix Corporation, priority 2003, dated 2009)
# Experiments:
# [1] = Assay of GDC-2 acetolactate synthase activity (acetoin colorimetric detection); assay type: biochemical; settings: 50 mM pyruvate, 1 mM TPP, 10 mM MgCl2, 0.01 mM FAD, pH 7.0, 2 hours at 37° C.
# Protocol: Acetolactate synthases are decarboxylating enzymes that condense two pyruvate molecules to form acetolactate with the release of a CO2 moiety from one of the pyruvate substrates. In the detection of the enzymatic reaction described by Pang and Duggleby (Pang and Duggleby (1999) Biochemistry 18:5222-5231), the product acetolactate is converted to acetoin by incubation with 1% H2SO4 for 15 minutes at 60° C. followed by neutralization with KOH. The acetoin is then detected as described by Westerfeld (Westerfeld (1945) J. Biol. Chem.161:495-502), using 0.15% creatine and 1.5% alpha-naphthol (dissolved in 2.5 N NaOH). The red colored reaction product is quantified by absorbance at 525 nm.
# Samples containing either 5 μg or 10 μg of GDC-2 were incubated in 50 mM pyruvate, 1 mM […] pyrophosphate, 10 mM MgCl2, 0.01 mM Flavin adenine dinucleotide (FAD), 100 mM potassium phosphate buffer pH 7.0 (total reaction volume of 50 μl) for 2 hours at 37° C. The reaction was stopped by the addition of 1 μl of 50% sulfuric acid (H2SO4) and incubated at 60° C. for 15 minutes. The reaction was neutralized by the addition of 30 μl of 1 N KOH followed by the addition of 10 μl of 1.5% creatine and 10 μl of 15% alpha-napthol dissolved in 2.5 N NaOH. The red colored reaction product was quantified by absorbance at 525 nm.
# ΔaroA E. coli = test: Genetic complementation of aroA mutation in E. coli; assay type: cell-based; settings: ΔaroA E. coli transformed with pAX473; M63 alone
# Source text: The E. coli aroA gene codes for EPSP synthase, the target enzyme for glyphosate. […] However, genes encoding EPSPS activity can restore the ability to grow […] upon aroA mutant E. coli strains. Thus, a test for genetic complementation of an aroA mutant is a highly sensitive method to test if a gene is capable of functioning as an EPSPS in E. coli. Such tests for gene function by genetic complementation are known in the art.
# A deletion of the aroA gene was created in E. coli XL-1 MRF′ (Stratagene) by PCR/recombination methods known in the art and outlined by Datsenko and Wanner, (2000) Proc. Natl. Acad. Sci. USA 97:6640-6645. This system is based on the Red system that allows for chromosomal disruptions of targeted sequences. A large portion (1067 nt of the 1283 nt) of the aroA coding region was disrupted by the engineered deletion.
# The ability of an EPSPS to complement the mutant phenotype of ΔaroA was confirmed. Clone pAX482, an E. coli expression vector containing the wild-type E. coli aroA gene, was transformed into ΔaroA, and transformed cells were selected. These cells (containing a functional aroA gene residing on a plasmid) were then plated on LB media, M63, and M63 with amino acid supplements. […]
molecule,measurement,setting,value
"GDC-2: glyphosate resistance-conferring decarboxylase protein (SEQ ID NO:3), acetolactate synthase homologue from strain ATX6837; purified as 6× His-tagged protein (protein, 6xHis tag; Fungal isolate from soil sample, purified as 6× His-tagged protein) MLRSRQASKALRALGQARHFTSTTQPAAVQAPRKVASGQRNQATAATATSAAPNVRATPSPAFNAEEQQQQKHSHVQPLVNPQKSDMDESFIGKTGGEIFHEMMLRQGVKHIFGYPGGAILPVFDAIYNSKHFDFILPRHEQGAGHMAEGYARASGKPGVVLVTSGPGATNVVTPMQDALSDGTPLVVFCGQVPTSAIGSDAFQEADVVGISRACTKWNVMVKNVAELPRRINEAFEIATSGRPGPVLVDLPKDVTAGILRRAIPTETALPALPSAASRAAMESSRKHLEHTIKRVADLVNKAKQPVIYAGQGIIQSEGGPELLKELADKASIPVTTTLQGLGGFDELDEKSLHMLGMHGSAYANMAMQEADLIIALGARFDDRVTLNVAKFAPGARAAAAEKRGGIVHFEVMPKNINKVVQATEAVEGNVGSNLKLLLPEVQAKTMDDRKEWFGKINEWKKKWPLSHYERAERHGLIKPQTLIEELSKLTADRKDKTYIATGVGQHQMWTAQHFRWRHPRSMITSGGLGTMGFGLPAAIGAKVAQPDALVFDIDGDASFGMTLTELATAAQFNIGVKVIVLNNEEQGMVTQWQNLFYEDRYAHTHQVNPDFMKLAESMRVQGRRCVDPEDVVDSLKWLINTDGPALLEVVTDKKVPVLPMVPAGSALHEFLVFDGEKDKKRRELMRERTSGLHG",Absorbance 525 nm (acetolactate synthase activity),[1]; 5 μg GDC-2,1.99
same,Absorbance 525 nm (acetolactate synthase activity),[1]; 10 μg GDC-2,3.13
same,Complementation of the aroA mutation (growth on M63 minimal media lacking aromatic amino acids),ΔaroA E. coli,not capable of complementing the aroA mutation
